Assay results from PMC1277818, “Substrate specificity analysis of protein kinase complex Dbf2-Mob1 by peptide library and proteome array screening” (BMC Biochemistry, 2005).

Biological target: T1, FHHDbf2-H6Mob1TM9 (Saccharomyces cerevisiae, UniProt P22204+P40484)
T1 construct: made in house; host or cells: Hi5 insect cells (baculovirus)
T1 sequence (P22204 1-572): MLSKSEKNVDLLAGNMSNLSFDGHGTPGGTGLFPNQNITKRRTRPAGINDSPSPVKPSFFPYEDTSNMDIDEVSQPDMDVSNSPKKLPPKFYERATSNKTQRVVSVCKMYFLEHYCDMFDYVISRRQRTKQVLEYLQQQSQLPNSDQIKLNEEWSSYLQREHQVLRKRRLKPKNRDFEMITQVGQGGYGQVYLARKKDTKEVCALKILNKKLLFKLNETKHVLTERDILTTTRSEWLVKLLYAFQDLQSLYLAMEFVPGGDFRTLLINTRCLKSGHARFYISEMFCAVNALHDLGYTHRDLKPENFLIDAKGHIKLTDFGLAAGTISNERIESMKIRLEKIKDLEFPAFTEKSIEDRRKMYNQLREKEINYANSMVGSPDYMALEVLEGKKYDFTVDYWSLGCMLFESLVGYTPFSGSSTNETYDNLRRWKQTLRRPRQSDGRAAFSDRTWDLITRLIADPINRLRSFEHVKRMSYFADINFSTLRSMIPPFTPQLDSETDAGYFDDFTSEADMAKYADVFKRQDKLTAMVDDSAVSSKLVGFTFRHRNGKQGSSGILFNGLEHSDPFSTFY
T1 sequence (P40484 1-314 partner): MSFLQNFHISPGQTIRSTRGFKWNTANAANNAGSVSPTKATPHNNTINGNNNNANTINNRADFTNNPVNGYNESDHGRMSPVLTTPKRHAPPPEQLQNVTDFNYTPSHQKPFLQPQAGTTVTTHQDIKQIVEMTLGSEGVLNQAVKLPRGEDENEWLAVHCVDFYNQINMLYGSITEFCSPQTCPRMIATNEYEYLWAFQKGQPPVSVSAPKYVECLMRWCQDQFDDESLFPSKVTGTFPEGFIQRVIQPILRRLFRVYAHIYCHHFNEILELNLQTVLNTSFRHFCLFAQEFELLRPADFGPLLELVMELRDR
Assay: Yeast proteome chip assay
Type: biochemical
Conditions: Table 3; GST fusion proteins on proteome chip, [γ-33P]ATP, chips in duplicate, computer analysis
Summary of the method: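 GST-tagged yeast proteins (~4,400 strains) spotted on proteome microarrays, probed in duplicate with FHHDbf2-H6Mob1TM9 in DKB plus [γ-33P]ATP; kinase-dead Dbf2(N305A) and kinase-free buffer served as controls. Positives: 3 of 4 spots ≥2 SD above background, fourth ≥1.5 SD.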

B1: YBL024W: GST fusion yeast protein on proteome chip (protein, UniProt P38205 1-684, looked up)
Multisite-specific …: MARRKNFKKGNKKTFGARDDSRAQKNWSELVKENEKWEKYYKTLALFPEDQWEEFKKTCQAPLPLTFRITGSRKHAGEVLNLFKERHLPNLTNVEFEGEKIKAPVELPWYPDHLAWQLDVPKTVIRKNEQFAKTQRFLVVENAVGNISRQEAVSMIPPIVLEVKPHHTVLDMCAAPGSKTAQLIEALHKDTDEPSGFVVANDADARRSHMLVHQLKRLNSANLMVVNHDAQFFPRIRLHGNSNNKNDVLKFDRILCDVPCSGDGTMRKNVNVWKDWNTQAGLGLHAVQLNILNRGLHLLKNNGRLVYSTCSLNPIENEAVVAEALRKWGDKIRLVNCDDKLPGLIRSKGVSKWPVYDRNLTEKTKGDEGTLDSFFSPSEEEASKFNLQNCMRVYPHQQNTGGFFITVFEKVEDSTEAATEKLSSETPALESEGPQTKKIKVEEVQKKERLPRDANEEPFVFVDPQHEALKVCWDFYGIDNIFDRNTCLVRNATGEPTRVVYTVCPALKDVIQANDDRLKIIYSGVKLFVSQRSDIECSWRIQSESLPIMKHHMKSNRIVEANLEMLKHLLIESFPNFDDIRSKNIDNDFVEKMTKLSSGCAFIDVSRNDPAKENLFLPVWKGNKCINLMVCKEDTHELLYRIFGIDANAKATPSAEEKEKEKETTESPAETTTGTSTEAPSAAN
modifications: GST tag
notes: GST fusion yeast protein on proteome chip
- Slide Signal (after normalization): 0.1294

B2: YML035C: GST fusion yeast protein on proteome chip (protein, UniProt P15274 1-810, looked up)
AMP deaminase: MDNQATQRLNDLSLEPAPSHDEQDGSGLVIDIDQRKIGDEQAGVVVDDETPPLEQQDSHESLAADSRNANFSYHENQQLLENGTKQLALDEHDSHSAILEQPSHSTNCSSSNIAAMNKGHDSADHASQNSGGKPRTLSASAQHILPETLKSFAGAPVVNKQVRTSASYKMGMLADDASQQFLDDPSSELIDLYSKVAECRNLRAKYQTISVQNDDQNPKNKPGWVVYPPPPKPSYNSDTKTVVPVTNKPDAEVFDFTKCEIPGEDPDWEFTLNDDDSYVVHRSGKTDELIAQIPTLRDYYLDLEKMISISSDGPAKSFAYRRLQYLEARWNLYYLLNEYQETSVSKRNPHRDFYNVRKVDTHVHHSACMNQKHLLRFIKHKLRHSKDEKVIFRDGKLLTLDEVFRSLHLTGYDLSIDTLDMHAHKDTFHRFDKFNLKYNPIGESRLREIFLKTNNYIKGTYLADITKQVIFDLENSKYQNCEYRISVYGRSLDEWDKLASWVIDNKVISHNVRWLVQIPRLYDIYKKTGIVQSFQDICKNLFQPLFEVTKNPQSHPKLHVFLQRVIGFDSVDDESKVDRRFHRKYPKPSLWEAPQNPPYSYYLYYLYSNVASLNQWRAKRGFNTLVLRPHCGEAGDPEHLVSAYLLAHGISHGILLRKVPFVQYLYYLDQVGIAMSPLSNNALFLTYDKNPFPRYFKRGLNVSLSTDDPLQFSYTREPLIEEYSVAAQIYKLSNVDMCELARNSVLQSGWEAQIKKHWIGKDFDKSGVEGNDVVRTNVPDIRINYRYDTLSTELELVNHFANFKRTIEEK
modifications: GST tag
notes: as for B1
- Slide Signal (after normalization): 0.1384

B3: YGL105W: GST fusion yeast protein on proteome chip (protein, UniProt P46672 1-376, looked up)
tRNA-aminoacylation cofactor …: MSDLVTKFESLIISKYPVSFTKEQSAQAAQWESVLKSGQIQPHLDQLNLVLRDNTFIVSTLYPTSTDVHVFEVALPLIKDLVASSKDVKSTYTTYRHILRWIDYMQNLLEVSSTDKLEINHDLDLPHEVIEKKKKAPAGGAADAAAKADEDVSKKAKKQDHPRGKPDEETLKKLREEAKAKKAAKKAANAKQQQEQQNKAPEKPKPSAIDFRVGFIQKAIKHPDADSLYVSTIDVGDEEGPRTVCSGLVKHFPLDAMQERYVVVVCNLKPVNMRGIKSTAMVLCGSNDDKVEFVEPPKDSKAGDKVFFEGFGDEAPMKQLNPKKKIWEHLQPHFTTNDGLEVIFKDEEEKDHPVRKLTNAKGESFKVASIANAQVR
modifications: GST fusion
notes: as for B1
- Slide Signal (after normalization): 0.1332

B4: YGR264C: GST fusion yeast protein on proteome chip (protein, UniProt P00958 2-751, looked up)
Methionine--tRNA ligase, …: SFLISFDKSKKHPAHLQLANNLKIALALEYASKNLKPEVDNDNAAMELRNTKEPFLLFDANAILRYVMDDFEGQTSDKYQFALASLQNLLYHKELPQQHVEVLTNKAIENYLVELKEPLTTTDLILFANVYALNSSLVHSKFPELPSKVHNAVALAKKHVPRDSSSFKNIGAVKIQADLTVKPKDSEILPKPNERNILITSALPYVNNVPHLGNIIGSVLSADIFARYCKGRNYNALFICGTDEYGTATETKALEEGVTPRQLCDKYHKIHSDVYKWFQIGFDYFGRTTTDKQTEIAQHIFTKLNSNGYLEEQSMKQLYCPVHNSYLADRYVEGECPKCHYDDARGDQCDKCGALLDPFELINPRCKLDDASPEPKYSDHIFLSLDKLESQISEWVEKASEEGNWSKNSKTITQSWLKDGLKPRCITRDLVWGTPVPLEKYKDKVLYVWFDATIGYVSITSNYTKEWKQWWNNPEHVSLYQFMGKDNVPFHTVVFPGSQLGTEENWTMLHHLNTTEYLQYENGKFSKSRGVGVFGNNAQDSGISPSVWRYYLASVRPESSDSHFSWDDFVARNNSELLANLGNFVNRLIKFVNAKYNGVVPKFDPKKVSNYDGLVKDINEILSNYVKEMELGHERRGLEIAMSLSARGNQFLQENKLDNTLFSQSPEKSDAVVAVGLNIIYAVSSIITPYMPEIGEKINKMLNAPALKIDDRFHLAILEGHNINKAEYLFQRIDEKKIDEWRAKYGGQQV
modifications: GST tag
notes: as for B1
- Slide Signal (after normalization): 0.1328

B5: YLR303W: GST fusion yeast protein on proteome chip (protein, UniProt P06106 2-444, looked up)
Homocysteine/cysteine synthase: PSHFDTVQLHAGQENPGDNAHRSRAVPIYATTSYVFENSKHGSQLFGLEVPGYVYSRFQNPTSNVLEERIAALEGGAAALAVSSGQAAQTLAIQGLAHTGDNIVSTSYLYGGTYNQFKISFKRFGIEARFVEGDNPEEFEKVFDERTKAVYLETIGNPKYNVPDFEKIVAIAHKHGIPVVVDNTFGAGGYFCQPIKYGADIVTHSATKWIGGHGTTIGGIIVDSGKFPWKDYPEKFPQFSQPAEGYHGTIYNEAYGNLAYIVHVRTELLRDLGPLMNPFASFLLLQGVETLSLRAERHGENALKLAKWLEQSPYVSWVSYPGLASHSHHENAKKYLSNGFGGVLSFGVKDLPNADKETDPFKLSGAQVVDNLKLASNLANVGDAKTLVIAPYFTTHKQLNDKEKLASGVTKDLIRVSVGIEFIDDIIADFQQSFETVFAGQKP
modifications: GST tag
notes: as for B1
- Slide Signal (after normalization): 0.0985

B6: YLR007W: GST fusion yeast protein on proteome chip (protein, UniProt Q07913 1-336, looked up)
Non-structural maintenance of …: MEVHEEQVSAPVTGDATAKYLLQYILSARGICHENALILALMRLETDASTLNTEWSIQQWVDKLNDYINAINVKLNLLGYKIIRINHGIGRNAVTLKAKQNFESFEDNTAIRAHNNDYAVLQSIVLPESNRFFVYVNLASTEETKLATRFNQNEIEFMKWAIEQFMISGETIVEGPALETSIIVKEVNRILVAATGDSNLAKWRKFSTFTVGSTNLFQFQELTATDIEDLLLRLCELKWFYRTQEGKFGIDLRCIAELEEYLTSMYNLNTCQNCHKLAIQGVRCGNESCREENEETGENSLSQIWHVDCFKHYITHVSKNCDRCGSSLITEGVYVI
modifications: GST tag
notes: as for B1
- Slide Signal (after normalization): 0.0988

B7: YLL008W: GST fusion yeast protein on proteome chip (protein, UniProt P32892 1-752, looked up)
ATP-dependent RNA helicase …: MVVGTKKYSNLDFVPTISDSEDDVPILDSSDDEKVEAKKTTKKRKGKNNKKKVSEGDNLDEDVHEDLDAGFKFDLDADDTTSNFQGWNFLAEGESNKDDAEAFVKKDVDLDKIIRRKGGLVKMAHIDSKQEEETEKEKVEKENDSDDEELAMDGFGMGAPMNNGDENQSEEEEEEEEKEEEEEEEEEQEEMTLEKGGKDDEIDEEDDSEEAKADFYAPETEGDEAKKQMYENFNSLSLSRPVLKGLASLGYVKPSPIQSATIPIALLGKDIIAGAVTGSGKTAAFMIPIIERLLYKPAKIASTRVIVLLPTRELAIQVADVGKQIARFVSGITFGLAVGGLNLRQQEQMLKSRPDIVIATPGRFIDHIRNSASFNVDSVEILVMDEADRMLEEGFQDELNEIMGLLPSNRQNLLFSATMNSKIKSLVSLSLKKPVRIMIDPPKKAATKLTQEFVRIRKRDHLKPALLFNLIRKLDPTGQKRIVVFVARKETAHRLRIIMGLLGMSVGELHGSLTQEQRLDSVNKFKNLEVPVLICTDLASRGLDIPKIEVVINYDMPKSYEIYLHRVGRTARAGREGRSVTFVGESSQDRSIVRAAIKSVEENKSLTQGKALGRNVDWVQIEETNKLVESMNDTIEDILVEEKEEKEILRAEMQLRKGENMLKHKKEIQARPRRTWFQSESDKKNSKVLGALSRNKKVTNSKKRKREEAKADGNGARSYRKTKTDRIADQERTFKKQKSTNSNKKKGFKSRR
modifications: GST tag
notes: as for B1
- Slide Signal (after normalization): 0.0702

B8: YFR033C: GST fusion yeast protein on proteome chip (protein, UniProt P00127 1-147, looked up)
Cytochrome b-c1 complex …: MGMLELVGEYWEQLKITVVPVVAAAEDDDNEQHEEKAAEGEEKEEENGDEDEDEDEDEDDDDDDDEDEEEEEEVTDQLEDLREHFKNTEEGKALVHHYEECAERVKIQQQQPGYADLEHKEDCVEEFFHLQHYLDTATAPRLFDKLK
modifications: GST fusion
notes: as for B1
- Slide Signal (after normalization): 0.042
